Data reported in the Human Domainome abundance scans (Beltran et al. 2025).
± gives the uncertainty stated by the source.

B1: Far upstream element-binding protein 3, residues 75 to 150; numbered along this chain, Q96I24 (parent)
chain: RTVITEEFKVPDKMVGFIIGRGGEQISRIQAESGCKIQIASESSGIPERPCVLTGTPESIEQAKRLLGQIVDRCRN

Variants of: B1
Assay: abundance fitness (aPCA) (normalised: wild type 0, dead -1); higher = more abundant; growth selection in yeast, the domain comes from the species named
Settings: Homo sapiens

Going from RTVITEEFKVPDKMVGFIIGRGGEQISRIQAESGCKIQIASESSGIPERPCVLTLTPESIEQAKRLLGQIVDRCRN [G55L] to RTVITEEFKVPDKMVGFIIGRGGEQISRIQAESGCKIQIASESSGIPERPCVLTQTPESIEQAKRLLGQIVDRCRN [G55Q], the abundance fitness rises from -1.39 ± 0.085 to -1.18 ± 0.083.

First: RTVITEEFKVPDKMVGFIIGRGGEQISRIQAESGCKIQIASESSGIPERPCVLTSTPESIEQAKRLLGQIVDRCRN [G55S]
Second: RTVITEEFKVPDKMVGFIIGRGGEQISRIQAESGCKIQIASESSGIPERPCVLTTTPESIEQAKRLLGQIVDRCRN [G55T]
The abundance fitness of the first is higher: -0.827 ± 0.045 for the first, -1.09 ± 0.078 for the second.

First: RTVITEEFKVPDKMVGFIIGRGGEQISRIQAESGCKIQIASESSGIPERPCVLTYTPESIEQAKRLLGQIVDRCRN [G55Y]
Second: RTVITEEFKVPDKMVGFIIGRGGEQISRIQAESGCKIQIASESSGIPERPCVLTNTPESIEQAKRLLGQIVDRCRN [G55N]
The abundance fitness of the first is lower: -1.28 ± 0.17 for the first, -0.989 ± 0.1 for the second.

RTVITEEFKVPDKMVGFIIGRGGEQISRIQAESGCKIQIASESSGIPERPCVLTFTPESIEQAKRLLGQIVDRCRN [G55F] and RTVITEEFKVPDKMVGFIIGRGGEQISRIQAESGCKIQIASESSGIPERPCVLTKTPESIEQAKRLLGQIVDRCRN [G55K] are within error of each other in abundance fitness: -1.17 ± 0.16 for the first, -0.972 ± 0.063 for the second.

First: RTVITEEFKVPDKMVGFIIGRGGEQISRIQAESGCKIQIASESSGIPERPCVLTWTPESIEQAKRLLGQIVDRCRN [G55W]
Second: RTVITEEFKVPDKMVGFIIGRGGEQISRIQAESGCKIQIASESSGIPERPCVLTRTPESIEQAKRLLGQIVDRCRN [G55R]
The abundance fitness of the first is lower: -1.34 ± 0.076 for the first, -1.07 ± 0.041 for the second.

RTVITEEFKVPDKMVGFIIGRGGEQISRIQAESGCKIQIASESSGIPERPCVLTMTPESIEQAKRLLGQIVDRCRN [G55M] and RTVITEEFKVPDKMVGFIIGRGGEQISRIQAESGCKIQIASESSGIPERPCVLTHTPESIEQAKRLLGQIVDRCRN [G55H] are within error of each other in abundance fitness: -1.24 ± 0.1 for the first, -1.22 ± 0.14 for the second.

RTVITEEFKVPDKMVGFIIGRGGEQISRIQAESGCKIQIASESSGIPERPCVLTDTPESIEQAKRLLGQIVDRCRN [G55D] and RTVITEEFKVPDKMVGFIIGRGGEQISRIQAESGCKIQIASESSGIPERPCVLTATPESIEQAKRLLGQIVDRCRN [G55A] are within error of each other in abundance fitness: -0.905 ± 0.077 for the first, -0.855 ± 0.04 for the second.

RTVITEEFKVPDKMVGFIIGRGGEQISRIQAESGCKIQIASESSGIPERPCVLTITPESIEQAKRLLGQIVDRCRN [G55I] and RTVITEEFKVPDKMVGFIIGRGGEQISRIQAESGCKIQIASESSGIPERPCVLTVTPESIEQAKRLLGQIVDRCRN [G55V] are within error of each other in abundance fitness: -1.12 ± 0.2 for the first, -1.38 ± 0.066 for the second.

Going from RTVITEEFKVPDKMVGFIIGRGGEQISRIQAESGCKIQIASESSGIPERPCVLTGEPESIEQAKRLLGQIVDRCRN [T56E] to RTVITEEFKVPDKMVGFIIGRGGEQISRIQAESGCKIQIASESSGIPERPCVLTGMPESIEQAKRLLGQIVDRCRN [T56M], the abundance fitness falls from -0.08 ± 0.032 to -0.183 ± 0.038.

RTVITEEFKVPDKMVGFIIGRGGEQISRIQAESGCKIQIASESSGIPERPCVLTGYPESIEQAKRLLGQIVDRCRN [T56Y] and RTVITEEFKVPDKMVGFIIGRGGEQISRIQAESGCKIQIASESSGIPERPCVLTGRPESIEQAKRLLGQIVDRCRN [T56R] are within error of each other in abundance fitness: -0.049 ± 0.05 for the first, -0.107 ± 0.027 for the second.

RTVITEEFKVPDKMVGFIIGRGGEQISRIQAESGCKIQIASESSGIPERPCVLTGQPESIEQAKRLLGQIVDRCRN [T56Q] and RTVITEEFKVPDKMVGFIIGRGGEQISRIQAESGCKIQIASESSGIPERPCVLTGLPESIEQAKRLLGQIVDRCRN [T56L] are within error of each other in abundance fitness: -0.127 ± 0.037 for the first, -0.138 ± 0.031 for the second.

Going from RTVITEEFKVPDKMVGFIIGRGGEQISRIQAESGCKIQIASESSGIPERPCVLTGCPESIEQAKRLLGQIVDRCRN [T56C] to RTVITEEFKVPDKMVGFIIGRGGEQISRIQAESGCKIQIASESSGIPERPCVLTGGPESIEQAKRLLGQIVDRCRN [T56G], the abundance fitness falls from -0.097 ± 0.04 to -0.232 ± 0.025.

First: RTVITEEFKVPDKMVGFIIGRGGEQISRIQAESGCKIQIASESSGIPERPCVLTGHPESIEQAKRLLGQIVDRCRN [T56H]
Second: RTVITEEFKVPDKMVGFIIGRGGEQISRIQAESGCKIQIASESSGIPERPCVLTGIPESIEQAKRLLGQIVDRCRN [T56I]
The abundance fitness of the first is higher: -0.106 ± 0.051 for the first, -0.225 ± 0.059 for the second.

Going from RTVITEEFKVPDKMVGFIIGRGGEQISRIQAESGCKIQIASESSGIPERPCVLTGPPESIEQAKRLLGQIVDRCRN [T56P] to RTVITEEFKVPDKMVGFIIGRGGEQISRIQAESGCKIQIASESSGIPERPCVLTGSPESIEQAKRLLGQIVDRCRN [T56S], the abundance fitness rises from -0.094 ± 0.036 to -0.013 ± 0.031.

First: RTVITEEFKVPDKMVGFIIGRGGEQISRIQAESGCKIQIASESSGIPERPCVLTGWPESIEQAKRLLGQIVDRCRN [T56W]
Second: RTVITEEFKVPDKMVGFIIGRGGEQISRIQAESGCKIQIASESSGIPERPCVLTGNPESIEQAKRLLGQIVDRCRN [T56N]
The abundance fitness of the first is lower: -0.332 ± 0.033 for the first, -0.105 ± 0.055 for the second.

Going from RTVITEEFKVPDKMVGFIIGRGGEQISRIQAESGCKIQIASESSGIPERPCVLTGAPESIEQAKRLLGQIVDRCRN [T56A] to RTVITEEFKVPDKMVGFIIGRGGEQISRIQAESGCKIQIASESSGIPERPCVLTGKPESIEQAKRLLGQIVDRCRN [T56K], the abundance fitness falls from -0.086 ± 0.032 to -0.166 ± 0.04.

RTVITEEFKVPDKMVGFIIGRGGEQISRIQAESGCKIQIASESSGIPERPCVLTGTEESIEQAKRLLGQIVDRCRN [P57E] and RTVITEEFKVPDKMVGFIIGRGGEQISRIQAESGCKIQIASESSGIPERPCVLTGTFESIEQAKRLLGQIVDRCRN [P57F] are within error of each other in abundance fitness: -0.045 ± 0.045 for the first, -0.103 ± 0.081 for the second.

RTVITEEFKVPDKMVGFIIGRGGEQISRIQAESGCKIQIASESSGIPERPCVLTGTCESIEQAKRLLGQIVDRCRN [P57C] and RTVITEEFKVPDKMVGFIIGRGGEQISRIQAESGCKIQIASESSGIPERPCVLTGTDESIEQAKRLLGQIVDRCRN [P57D] are within error of each other in abundance fitness: -0.143 ± 0.054 for the first, -0.182 ± 0.055 for the second.
